Measurements reported in US20210269545A1 (published 2021).

What was measured:
[1] = molecular target: T1, CD38 (human, UniProt P28907 43-300, limits assumed); test: BLI (Octet Red), antibody on anti-hIgG Fc (AHC) sensor, 1:1 model
T1 construct: Soluble antigen of the bio-layer interferometry experiments; also called Cluster of Differentiation 38; CD38 antigen (Octet)

[2] = molecular target: T1, CD38; test: BLI (Octet Red), antibody on anti-hIgG Fc (AHC) sensor

B1: BS1M-4 (bispecific antibody)
heavy 1: QVQLVQSGAEVKKPGSSVKVSCKASGGTFSSYAFSWVRQAPGQGLEWMGRVIPHLGTANSAQKFQGRVTITADKSTSTAYMELSSLRSEDTAVYYCARDDIAALGPFDYWGQGTLVTVSS
heavy 2: not shown
light: not shown
notes: Variant of BS1 in the CDR-H2 of the anti-CD38 arm; not shown: heavy chain constant region of the BS1 format
B1 showed a Kd [1] of 94.4 nM.

B2: BS1M-2 (bispecific antibody)
heavy 1: QVQLVQSGAEVKKPGSSVKVSCKASGGTFSSYAFSWVRQAPGQGLEWMGRVTPFLGTANSAQKFQGRVTITADKSTSTAYMELSSLRSEDTAVYYCARDDIAALGPFDYWGQGTLVTVSS
heavy 2: not shown
light: not shown
notes: Variant of BS1; not shown: heavy chain constant region of the BS1 format
B2: no binding [2].

B3: BS1M-9 (bispecific antibody)
heavy 1: QVQLVQSGAEVKKPGSSVKVSCKASGGTFSSYAFSWVRQAPGQGLEWMGRVIPQQGTANSAQKFQGRVTITADKSTSTAYMELSSLRSEDTAVYYCARDDIAALGPFDYWGQGTLVTVSS
heavy 2: not shown
light: not shown
notes: as for B2
B3: no binding [2].

B4: BS1M-7 (bispecific antibody)
heavy 1: QVQLVQSGAEVKKPGSSVKVSCKASGGTFSSYAFSWVRQAPGQGLEWMGRVIPQLGTANSAQKFQGRVTITADKSTSTAYMELSSLRSEDTAVYYCARDDIAALGPFDYWGQGTLVTVSS
heavy 2: not shown
light: not shown
notes: as for B1
With B4 the Kd [1] was 60.5 nM.

B5: BS1M-5 (bispecific antibody)
heavy 1: QVQLVQSGAEVKKPGSSVKVSCKASGGTFSSYAFSWVRQAPGQGLEWMGRVTPHLGTANSAQKFQGRVTITADKSTSTAYMELSSLRSEDTAVYYCARDDIAALGPFDYWGQGTLVTVSS
heavy 2: not shown
light: not shown
notes: as for B2
B5: no binding [2].

B6: BS1M-8 (bispecific antibody)
heavy 1: QVQLVQSGAEVKKPGSSVKVSCKASGGTFSSYAFSWVRQAPGQGLEWMGRVIPHQGTANSAQKFQGRVTITADKSTSTAYMELSSLRSEDTAVYYCARDDIAALGPFDYWGQGTLVTVSS
heavy 2: not shown
light: not shown
notes: as for B2
B6: no binding [2].
